The values that follow come from US20240254227A1 (Alector, published 2024).

Numbering of substitutions follows the chain as printed.

T1: murine CD300D-Fc (mouse)
T1 construct: mouse IgG2a-Fc fusion (R&D Systems); the entry is the whole fusion chain; also called mCD300D; Mouse CD300D-Fc
T1 chain: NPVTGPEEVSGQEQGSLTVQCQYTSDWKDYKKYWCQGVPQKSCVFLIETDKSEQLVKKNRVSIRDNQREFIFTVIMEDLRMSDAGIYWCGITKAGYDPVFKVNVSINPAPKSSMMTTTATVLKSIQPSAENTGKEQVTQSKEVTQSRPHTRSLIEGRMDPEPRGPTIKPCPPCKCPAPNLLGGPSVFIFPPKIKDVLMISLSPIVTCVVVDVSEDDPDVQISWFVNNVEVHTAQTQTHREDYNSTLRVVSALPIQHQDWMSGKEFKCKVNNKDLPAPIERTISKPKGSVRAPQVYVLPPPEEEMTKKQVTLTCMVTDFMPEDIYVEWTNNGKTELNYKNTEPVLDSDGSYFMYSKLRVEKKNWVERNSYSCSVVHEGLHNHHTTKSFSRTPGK

T2: human CD300LB on primary human macrophages (human, UniProt A8K4G0 18-201)
T2 sequence: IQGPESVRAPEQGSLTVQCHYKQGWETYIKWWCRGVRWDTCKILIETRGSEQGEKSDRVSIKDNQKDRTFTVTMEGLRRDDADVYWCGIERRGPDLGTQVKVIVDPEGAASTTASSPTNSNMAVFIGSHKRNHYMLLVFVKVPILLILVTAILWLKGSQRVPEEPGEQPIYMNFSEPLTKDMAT

T3: human CD300LB on primary human monocytes (human, UniProt A8K4G0 18-201)
T3 construct: Endogenous protein on primary cells; that the target is CD300LB is inferred from the antibodies being anti-CD300LB antibodies; also called Monocyte donor 1281; Monocyte donor 1282
T3 sequence: T2 sequence

B1: anti-CD300LB antibody CD-11 (antibody, V domains shown)
VH: QIQLVQSGPEVKKPGETVKISCKASGYTLTDYSMHWVMQTPGTGLKWMAWMNTETGEPTYADDFKGRFAFSLETSAGTAYLQIDNLKNEDTATYFCATYGKSYGMKYWGQGTSVTVSS
VL: DIVLTQSPPSLAVSLGQRATISCRATKSVSPYLHWYQQTPGQPPKLLIYLASNLDSGVPARFSGSGSGTDFTLNIHPVEEEDAATYYCQHNKELPPTFGGGTRLEIK
B2: anti-CD300LB antibody CD-18 (antibody, V domains shown)
VH: DVQLQESGPDLVKPSQSLSLTCTVTGYSITSGYSWHWIRQFPDNKLEWMGYILSRGDTNFNPSLKSRISITRSTSNNQFFLHFNSVTTEDTATYYCARDFFDYWGQGTTLTVSS
VL: DVLMTQTPLSLPVSLGDQASISCRSSQSIVHSNGNTYLEWYLQKPGQSPKLLIYKVSDRFSGVPDRFSGSGSGTDFTLKISRVEAEDLGVYFCFQGSHVPYTFGGGTKLEIK
B3: anti-CD300LB antibody CD-12 (antibody, V domains shown)
VH: QIQLVQSGPELKKPGETVKISCKASGYTFTDYSMHWVRQAPGKGLKWMAWINTETGEATHADDFKGRFDFSLDTSASTAYLQIKNLKNEDTGIYFCVCYGSSYGMDYWGQGTSVTVSS
VL: DIVLTQSPASLPVSLGQRATISCRASKSVRTSGASYMHWYQQKPGQPPKLLIYLASNLKSGVPTRFSGSGSGTDFTLNIHPVEEEDAATYYCQHNREVPPTFGGGTKLEIK
B4: anti-CD300LB antibody CD-17 (antibody, V domains shown)
VH: QIQLVQSGPELKKPGETVKISCKASGYTLTDYSMHWVKQAPGKGLKWMGWINTETGEPRYGDDFKGRFAFSLETSASSAYLQINNLKNDDTATYFCATYGRSYGMDFWGQGTSVTVSS
VL: B3 VL with P12A, R30S, T31P, A34H, T64A, E85G, V98L, T106S
B5: anti-CD300LB antibody CD-15 (antibody, V domains shown)
VH: QIQLVQSGPELKKPGETVKISCQVSGYTFTDYSMHWLKQAPGKGLKWMAWINTETGESTYTDEFKGRFVFSLETSVRTAYLKINNLKNEDTATYFCGTYGSSYGMAYWGQGTSVTVSS
VL: B3 VL with R30S, A34S, M37L, N57K, K59E, T64A, S67R
B6: anti-CD300LB antibody CD-02 (antibody, V domains shown)
VH: QVQLQQPGAELVRPGSSVKLSCQASGYTFTNYWMHWVRQRPIQGLEWIGNIDPSDSETHYNQKFKDRATLTVDKSSSTAYMQLSSLTSEDSAVYYCARSGVYDDEGGDYWGQGTTLTVSS
VL: ENVLTQSPAIMSASPGEKVTMTCSASSSVSYIHWYQQKSSTSPKLWIYDTSKLASGVPGRFSGSGSGNSYSLTISSMETEDVATYYCFQGSGYPLTFGAGTKLELK
B7: anti-CD300LB antibody CD-03 (antibody, V domains shown)
VH: EVQLQQSGPELVKPGASVKISCKASGYTFTDYYINWVRQSHGKSLECIGDINPNNGGTNYNQKFKGKATLTVDRSSNTAYMEFRSLTFDDSALYYCAAEGAYWGQGTLVTVSA
VL: not shown
B8: anti-CD300LB antibody CD-07 (antibody, V domains shown)
VH: QVQLVQSGAEVKKPGASVKVSCKASGYTFTNYRMHWVRQAPGQGLEWMGWINPNSGGTIYAQKFQGRVTMTRDTSTSTVYMELSSLRSEDTAVYYCARDLDYWGQGTLVTVSS
VL: DIQMTQSPSSLSASVGDRVTITCQASQDISNYLNWYQQKPGKAPKLLIYGASSLQSGVPSRFSGSGSGTDFTLTISSLQPEDFATYYCQQSYSTPWTFGPGTKVEIK
B9: anti-CD300LB antibody CD-06 (antibody, V domains shown)
VH: QVQLVQSGAEVKKPGASVKVSCKASGYTFTTYAVHWVRQAPGQGLEWMGIVNPNSGGTNYAQKFQGRVTMTRDTSTSTVYMELSSLRSEDTAVYYCARDIVPMNNFYNYYYGMDVWGQGTTVTVSS
VL: B8 VL with Q24R, D28S, N31S, G50A, A51T, S53T, S93R, T94I, W96Y, P100Q
B10: anti-CD300LB antibody CD-05 (antibody, V domains shown)
VH: QVQLVQSGAEVKKPGASVKVSCKASGYTFSRYYINWVRQAPGQGLEWMGWINPNSGGTNYAQKFQGRVTMTRDTSTSTVYMELSSLRSEDTAVYYCTTDQLRFGKTGPYYGMDVWGQGTTVTVSS
VL: B8 VL with Q24R, D28N, S30G, N31T, G50A, T94D, P95T, W96L, P100G
B11: anti-CD300LB antibody CD-01 (antibody, V domains shown)
VH: RVQLQQSGAELVRPGASVTLSCKASGFTFTDFEMHWVKKTPVHGLEWIGAIDPESGNTAYNQKFRGKATLTADKSSSTAYMELRYLTSEDSAVYYCTPLISGADYWGQGTTLTVSS
VL: DVVMTQSPLSLPVSLGDQASISCRSSQSLVHSDGNTYLYWYLQKPGQSPKLLIYKVSNRFSGVPDRFSGSGSGTDFTFKISRVGAEDLGVYFCSQSTHVPWTFGGGTKLEII

The target of the first assay is T1, murine CD300D-Fc. Briefly: SPR (Carterra LSA), antibody immobilised, Fc fusion at 300 or 600 nM.
For B1, the “SPR binding (control subtracted)” value is -0.1.

As for B2, the “SPR binding (control subtracted)” value was found to be 0.6.

As for B3, the “SPR binding (control subtracted)” value was 0.6.

Regarding B4, the “SPR binding (control subtracted)” value was 0.8.

Regarding B5, the “SPR binding (control subtracted)” value stood at 1.7.

For another assay, the target named is T4, huCD300LB-DAP12 fusion constitutively expressed on 293 Freestyle (Freestyle HEK) cells (human).
T4 construct: also called Human CD300LB-DAP12 chimera
Briefly: flow cytometry, stable Freestyle HEK cells. How it is done: Other members of the human CD300 family share sequence homology with human CD300LB. Thus, counter screens against binding of the anti-CD300LB antibodies to huCD300A, huCD300C, huCD300LD, huCD300E, huCD300LF, and huCD300G by stable overexpression in Freestyle HEK cells (generation of which is described above) were performed as follows. Cells were counted and labeled with 200 nM CFSE, 500 nM VioBlue, or a combination of the two to discriminate between CD300LB, Parental cells, and the other CD300 family members. Cells were washed thoroughly with PBS containing 2% fetal bovine serum then resuspended at a total of 240,000 cells per well. Hybridoma supernatants (100 L) or purified antibodies at various concentrations were added and incubated for one hour before the cells were washed twice again and stained with an APC-labeled anti-human or anti-mouse secondary antibody. Cells were then analyzed using a BD FACSCanto II. Anti-CD300LB antibodies were analyzed for specific binding to human CD300LB by FlowJo software by gating on live cells, then the APC geometric mean fluorescence intensity (gMFI) calculated for each labeled population. The results are shown in […]
Freestyle HEK cells were transfected with huCD300A, huCD300C, huCD300D, huCD300E, and huCD300G separately. Then, five stable cell lines from these transfections were pooled; the combined cells are herein known as CD300A/C/D/E/G. Freestyle HEK cells were also transfected with huCD300LB and huCD300F. All transfected cells were then tested for binding of anti-CD300LB antibodies of the present disclosure.
Regarding B6, the gMFI came to 108 gMFI.

Take B7: the gMFI amounted to 163000 gMFI.

With B8, the gMFI came to 31500 gMFI.

As to B9, the gMFI was 80900 gMFI.

In the case of B10, the gMFI was 113000 gMFI.

Take B11: the gMFI is 45 gMFI.

In the next assay the target is T2, human CD300LB on primary human …. Briefly: flow cytometry, primary human macrophages donor 1275, 10 ug/mL antibody, isotype control subtracted. As to the method: (§1) Human monocytes from various donors were isolated from whole blood using RosetteSep Human Monocyte Enrichment Cocktail (Stemcell technologies) and Ficoll centrifugation per manufacturer protocols. After lysing red blood cells with ACK lysing buffer, monocytes were resuspended in complete media (RPMI, 10% FBS, Pen/Strep, L-glutamine, HEPES, non-essential amino acid, Sodium pyruvate). To obtain macrophages from these isolated monocytes, 100 ng/ml human M-CSF and 8% v/v human serum were added to the cells for 5-7 days. Cells were counted on the day of the experiment and plated at 100,000 cells per well in a round-bottom 96 well plate. Cells were incubated with TruStain Fc block and 10 μg/mL antibody for 1 hour on ice before washing with 250 μL ice cold PBS twice. Cells were then incubated with the appropriate APC-conjugated secondary antibodies for 20 minutes in the dark on ice. Finally, cells were washed twice with ice cold FACS buffer and then resuspended in 100 μL FACS buffer containing 1% propidium iodide. Samples were immediately analyzed using a BD FACSCanto flow cytometer. The gMFI was calculated using FlowJo software minus the gMFI of the appropriate isotype control.
B8 showed a gMFI of 2700 gMFI.

B9 displayed a gMFI of 26900 gMFI.

The molecule B10 had a gMFI of 61000 gMFI.

The target of the next assay is T3, human CD300LB on primary human monocytes. Briefly: flow cytometry, primary human monocytes donor 1283, 10 ug/mL antibody, isotype control subtracted. As to the method: as §1
(In general: Flow cytometry measures light scatter and fluorescence of single cells or particles in a stream.)
Molecule B8 had a gMFI of 47 gMFI.

For B9, the gMFI came out at 2470 gMFI.

On to B10, for which the gMFI was found to be 935 gMFI.

Another assay shares this target. Briefly: flow cytometry, primary human monocytes donor 1282, 10 ug/mL antibody, isotype control subtracted. As to the method: as §1
B8: the gMFI amounted to 468 gMFI.

Consider B9, for which the gMFI was determined as 3440 gMFI.

B10 had a gMFI of 1560 gMFI.

For a further assay the target is unchanged. Briefly: flow cytometry, primary human monocytes donor 1281, 10 ug/mL antibody, isotype control subtracted. As to the method: as §1
Regarding B8, the gMFI was 43 gMFI.

For B9, the gMFI was determined as 1650 gMFI.

Molecule B10 yielded a gMFI of 736 gMFI.
